Experimental data from US20220213198A1, “METHOD OF TREATMENT” (The Council of the Queensland Institute of Medical Research, priority 2019, published 2022).
“Also recorded” adds a separate entry of the source.

Key:
MR1 / MAIT cells = details: cited from earlier work; for effect on MAIT cell activation: background statement
[1] = biological target: T1, surface MR1 on mouse tumor cell lines (Mus musculus, UniProt Q8HWB0); details: stated as property of the ligand; cited from earlier work
T1 construct: endogenous in cells
T1 sequence (Q8HWB0 19-341): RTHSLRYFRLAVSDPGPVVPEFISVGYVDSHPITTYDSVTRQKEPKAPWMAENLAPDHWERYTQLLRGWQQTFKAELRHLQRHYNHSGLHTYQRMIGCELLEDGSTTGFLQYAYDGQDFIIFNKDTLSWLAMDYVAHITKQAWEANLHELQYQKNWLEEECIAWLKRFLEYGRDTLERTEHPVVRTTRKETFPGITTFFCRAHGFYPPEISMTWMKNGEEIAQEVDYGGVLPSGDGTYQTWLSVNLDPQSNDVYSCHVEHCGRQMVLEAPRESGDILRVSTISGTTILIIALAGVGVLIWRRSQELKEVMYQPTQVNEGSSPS
T1 sequence (P01887 21-119 partner): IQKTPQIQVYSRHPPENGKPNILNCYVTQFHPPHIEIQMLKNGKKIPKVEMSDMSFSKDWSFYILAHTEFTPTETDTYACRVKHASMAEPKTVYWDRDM

B16F10 melanoma cells = assay: B16F10 experimental lung metastasis model; type: in vivo, mouse
Method: FIG. 2. […] (A) The schematic and timeline of expanding MAIT cells from splenocytes derived from C57BL/6 WT mice with IL-2 and 5-OP-RU, for sorting and adoptive transfer into tumor-bearing mice. (B, C) Groups of WT or MR1^−/− or Rag2cγ^−/− mice (n=5-6/group) were injected i.v. with (B) 1×10^5 or (C) 1×10^4 B16F10 melanoma cells. In some groups, sorted MAIT or T conventional cells (cT) (non-MAIT αβ^+ T cells) (2×10^5 cells/mouse) from C57BL/6 (B) WT or (C) TCRδ^−/− mice were i.v. injected into the indicated groups of mice one day before tumor inoculation. (C) One group of mice received i.v injection of media alone as a control. (B, C) On day 14 relative to tumor cell inoculation, lungs were harvested and the metastatic burden was quantified by counting colonies on the lung surface. Data presented as mean±SEM. (D) B16F10 or LWT1 melanoma cells were stimulated in vitro with DMSO or 5-OP-RU (100 nM) for 4 hours before cell surface MR1 expression was determined by flow cytometry. Groups of C57BL/6 WT or MR1^−/− mice (n=5-6/group) were i.v. injected with (E) 1×10^5 B16F10 or (F) 5×10^5 LWT1 cells melanoma cells pulsed with DMSO or 5-OP-RU (100 nM, 4 hours). Fourteen days later relative to tumor cell inoculation, lungs were harvested and the metastatic burden was quantified by counting colonies on the lung surface. Data presented as mean±SEM. Experiments performed once for (B, C, F) and three times for (D, E) with one representative experiment shown. Significant differences between groups as indicated by crossbars were determined using a one-way ANOVA followed by Tukey's post-hoc test (B, E, F), *p<0.05, **p<0.01, ****p<0.0001
FIG. 5. […] (A) Generation of three independent B16F10 cell lines knocked out for MR1 using three different MR1 sgRNA. […] Empty vector transfected B16F10 cells were used as a positive control. (B, C) Groups of C57BL/6 WT, MR1^−/− or Rag2cγ^−/− mice (n=5-6/group) were i.v. injected with either (B) 1×10^5 B16F10 vector control cells or the indicated clone of B16F10 cells lacking MR1 (sgR1, sgR2, sgR3) or (C) 1×10^4 B16F10-MR1^KO cells (sgR3 clone). On day 14 relative to tumor cell inoculation, lungs were harvested and the metastatic burden was quantified by counting colonies on the lung surface. Data presented as mean±SEM. (D) Re-expression of GFP or GFP-MR1 expressing vector into B16F10-MR1^KO (sgR3 clone). MR1 surface expressions of these cells stimulated with or without 5-OP-RU were assessed by flow cytometry. (E) Groups of C57BL/6 WT mice (n=6/group) were i.v. injected with 1×10^5 B16F10-MR1^KO (sgR3 clone) transfected with empty GFP-expressing vector or MR1-GFP-expressing vector. (F) Groups of C57BL/6 WT or MR1^−/− mice were i.v. injected with parental B16F10 cells treated with vehicle (dd H2O) or AC-6-FP (10 μM, 18 hours). On day 14 relative to tumor cell injection, lungs were harvested and the metastatic burden was quantified by counting colonies on the lung surface. Data presented as mean±SEM. Experiments performed twice for (A-E) and once for (F). Significant differences between groups as indicated by crossbars were determined by a one-way ANOVA followed by Tukey's post-hoc test (A, F), or a Mann-Whitney test (C, E), *p<0.05, **p<0.01, ****p<0.0001.
FIG. 6. […] Groups of C57BL/6 WT or MR1^−/− mice (n=5-6/group) were i.v. injected with (A, B) 1×10^5 B16F10, (C) 1×10^5 parental B16F10 or 2×10^5 B16F10-MR1^KO (sgR3 clone) melanoma cells and (D) 5×10^5 LWT1 melanoma cells or s.c injected with (E) 1×10^6 MCA1956 fibrosarcoma or (F) 1×10^6 SM1WT1 melanoma cells on day 0.

mouse MR1 = mouse MR1 (Mus musculus, UniProt Q8HWB0); assay: Anti-MR1 reactivity with mouse MR1; type: binding; details: flow cytometry antibody
mouse MR1, sequence (Q8HWB0 19-341): as the sequence (Q8HWB0 19-341) above
mouse MR1, sequence (P01887 21-119 partner): as the sequence (P01887 21-119 partner) above
Excerpt: (§1) MR1 mRNA transcripts are present in different tissues and cell lines from mice and humans. […] In contrast, whether mouse tumor cell lines express MR1 has not previously been examined. […] Basally, the level of MR1 was almost undetectable on the surface of all tumor cell lines examined (FIG. 2D). […] The kinetics of MR1 upregulation on B16F10 cells was similar to what was previously reported for human C1R cells (B-cell lymphoblastoid cell line) (McWilliam et al., 2016). […] Next, the impact of up-regulation of MR1 on B16F10 or LWT1 prior to i.v injection to WT or MR1−/− mice on the number of lung metastases was assessed.

human MR1 = human MR1 (Homo sapiens, UniProt Q95460); assay: Anti-MR1 reactivity with human MR1; type: binding; details: flow cytometry antibody
human MR1, sequence (Q95460 23-341): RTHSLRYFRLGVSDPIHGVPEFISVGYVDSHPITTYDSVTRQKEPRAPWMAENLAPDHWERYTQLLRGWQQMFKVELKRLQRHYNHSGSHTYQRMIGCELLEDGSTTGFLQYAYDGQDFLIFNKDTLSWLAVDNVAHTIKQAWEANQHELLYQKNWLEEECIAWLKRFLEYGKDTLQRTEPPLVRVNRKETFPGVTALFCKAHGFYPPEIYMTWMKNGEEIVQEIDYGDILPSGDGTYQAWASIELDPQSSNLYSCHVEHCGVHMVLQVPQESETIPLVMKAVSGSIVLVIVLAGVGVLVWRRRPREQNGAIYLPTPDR
human MR1, sequence (P61769 21-119 partner): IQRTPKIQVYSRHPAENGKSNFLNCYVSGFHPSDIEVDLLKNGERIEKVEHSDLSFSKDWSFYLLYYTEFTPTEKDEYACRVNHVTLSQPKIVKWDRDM
Excerpt: as §1

[2] = biological target: T2, mouse MR1 (MHC class I-related protein 1) (mouse, UniProt Q8HWB0 19-341); assay: flow cytometry on mouse tumor cell lines with or without 5-OP-RU
T2 construct: whole, on cells; also called surface MR1
T2 sequence (Q8HWB0 19-341): as the sequence (Q8HWB0 19-341) above
Excerpt: as §1

[3] = biological target: T3, human MR1 (MHC class I-related protein 1) (human, UniProt Q95460 23-341); assay: flow cytometry; human cell lines with or without 5-OP-RU (data not shown)
T3 construct: The assays used endogenous MR1 of human cell lines (flow cytometry) and of FFPE tumor sections (IHC); no signal peptide limits are stated
T3 sequence (Q95460 23-341 limits assumed): as the sequence (Q95460 23-341) above

Nc1nc2ncc(C=O)nc2c(=O)[nH]1 [6-FP, 6-formylpterin]
effect on MAIT cell activation (MR1 / MAIT cells): inhibit MAIT cell activation

CC(=O)Nc1nc2ncc(C=O)nc2c(=O)[nH]1 [AC-6-FP, acetyl 6-formylpterin]
MR1 expression [1]: upregulates MR1 | effect on MAIT cell activation (MR1 / MAIT cells): does not activate MAIT cells; also recorded: inhibit MAIT cell activation | number of lung metastases (B16F10 melanoma cells; WT mice injected with B16F10 pre-treated 10 μM 18 hours, vs vehicle-treated, day 14): decrease in metastases numbers | number of lung metastases (B16F10 melanoma cells; WT mice injected with B16F10 pre-treated 10 μM 18 hours, vs vehicle-treated, day 14, listed as Ac-6-FP): dramatically reduced

B1: 26.5: anti-MR1 blocking antibody from hybridoma clone 26.5, IgG2a isotype; heavy chain SEQ ID NO: 4, light chain SEQ ID NO: 8 (antibody, listed as Mus musculus, V domains shown)
VH: MEWSRVFIFLLSITAGVHSQVQLQQSGTELVRPGTSVKVSCKASGYAFSNYLIEWIKQRPGQGLEWIGVINPGSGGISYNEKFKGKATLTADKSSSTAYMQLSSLTSEDSAVYFCARWGYLYYYTMDHWGQGTSVTVSS
VL: MKLPVRLLVLMFWIPASSSDVLMTQTPLSLPVSLGDQASISCRSSQSIVQGSGNTFLDWYLQKPGQSPKVLIYKVSNRFSGVPARFSGSGSGTDFTLKISRVEAEDLGVYYCFQGSHVPYTFGGGTKLEIK
reactivity with mouse MR1 (mouse MR1): cross-reacts with both mouse and human MR1 | blocking of MAIT cell interaction with MR1 (MR1 / MAIT cells; stated as known): block MAIT cells from interacting with MR1 | reactivity with human MR1 (human MR1): cross-reacts with both mouse and human MR1 | number of lung metastases (B16F10 melanoma cells; B16F10 tumor-bearing MR1-/- mice, antibody vs cIg): no further decrease | B16F10 lung metastases (B16F10 melanoma cells; WT mice, 250 μg/mouse i.p. days -1, 0, 3 and 7, vs cIg, day 14): effectively suppressed lung metastases | suppression of B16F10 lung metastases, three vs four doses (B16F10 melanoma cells; WT mice, 250 μg/mouse i.p., days -1, 0, 3 vs days -1, 0, 3 and 7): more effective when four doses

B2: anti-MR1 antibody 26.5 (antibody, V domains shown)
VH: QVQLQQSGTELVRPGTSVKVSCKASGYAFSNYLIEWIKQRPGQGLEWIGVINPGSGGISYNEKFKGKATLTADKSSSTAYMQLSSLTSEDSAVYFCARWGYLYYYTMDHWGQGTSVTVSS
VL: DVLMTQTPLSLPVSLGDQASISCRSSQSIVQGSGNTFLDWYLQKPGQSPKVLIYKVSNRFSGVPARFSGSGSGTDFTLKISRVEAEDLGVYYCFQGSHVPYTFGGGTKLEIK
binding result [2]: binds | binding result [3]: binds
